Ends that are not written are not given here.
How the values were obtained:
[1] = target: T1, C34 (HIV-1); assay: CD spectroscopy of the N-peptide/C-peptide mixture in PBS
T1 construct: also called CHR-peptide C34; C-peptide C34

[2] = target: T1, C34; assay: CD thermal denaturation monitored at 222 nm

B1: N28 (peptide)
peptide: IEAQQHLLQLTVWGIKQLQARILAVERY
notes: Residue numbers count on HIV-1 HXB2 gp160; also called N28 peptide; free N28 peptide
B1: no binding (tested: 10 µM) [1].

B2: N28Fd trimer (designed binder)
chain: IEAQQHLLQLTVWGIKQLQARILAVERYGYIPEAPRDGQAYVRKDGEWVLLSTFL
modifications: also: trimer
notes: It gives the full length as 55 residues; also called FdN28Fd1
B2 was tested, and the “Tm of the complex” value [2] was 62.2 ° C.

— patent publication US20150306174A1 (NEW YORK BLOOD CENTER, published 2015)
